Results on 167 variants are retold here after the Human Domainome abundance scans (Beltran et al. 2025).

± gives the uncertainty stated by the source.

The chains are these.
B1: Gamma-crystallin D, residues 90 to 170; numbered along this chain, P07320 (parent)
chain: IRLYEREDYRGQMIEFTEDCSCLQDRFRFNEIHSLNVLEGSWVLYELSNYRGRQYLLMPGDYRRYQDWGATNARVGSLRRV

The variants in this series derive from B1. Kind of series: abundance fitness (aPCA) (normalised: wild type 0, dead -1); higher = more abundant; growth selection in yeast, the domain comes from the species named. The following applies: Homo sapiens.
Y55S: the abundance fitness came to 0.126 ± 0.12.

Y55D: the abundance fitness is -0.23 ± 0.18.

As for Y55L, the abundance fitness was 0.107 ± 0.082.

Regarding Y55Q, the abundance fitness is -0.006 ± 0.14.

For the variant Y55P, the abundance fitness is -1.07 ± 0.17.

Y55V: the abundance fitness was found to be 0.082 ± 0.11.

Turning to Y55G, the abundance fitness came out at 0.017 ± 0.066.

On to Y55F, for which the abundance fitness is -0.044 ± 0.18.

In the case of Y55R, the abundance fitness came out at 0.014 ± 0.081.

As for Y55M, the abundance fitness was -0.039 ± 0.18.

With Y55W, the abundance fitness was -0.001 ± 0.11.

On to Y55K, for which the abundance fitness was 0.087 ± 0.12.

Y55C: the abundance fitness was -0.061 ± 0.5.

As for Y55I, the abundance fitness came out at 0.298 ± 0.22.

Consider Y55H, for which the abundance fitness was -0.018 ± 0.27.

Take Y55T: the abundance fitness worked out at 0.187 ± 0.14.

As to Y55E, the abundance fitness stood at 0.241 ± 0.1.

For P59C, the abundance fitness amounted to 0.011 ± 0.15.

Turning to P59H, the abundance fitness was -0.052 ± 0.24.

Consider P59M, for which the abundance fitness is -0.037 ± 0.13.

For P59D, the abundance fitness stood at 0.14 ± 0.15.

Turning to P59Y, the abundance fitness is -0.222 ± 0.34.

Turning to P59E, the abundance fitness was -0.005 ± 0.1.

On to P59A, for which the abundance fitness came to 0.088 ± 0.092.

As for P59W, the abundance fitness was -0.083 ± 0.12.

For P59F, the abundance fitness was -0.353 ± 0.22.

Take P59G: the abundance fitness is 0.065 ± 0.076.

For P59I, the abundance fitness was -0.157 ± 0.38.

Turning to P59Q, the abundance fitness worked out at 0.05 ± 0.13.

Regarding P59R, the abundance fitness was -0.088 ± 0.073.

For the variant P59L, the abundance fitness was -0.085 ± 0.082.

Take P59S: the abundance fitness is -0.007 ± 0.079.

Consider P59V, for which the abundance fitness was -0.099 ± 0.068.

On to P59N, for which the abundance fitness was -0.027 ± 0.15.

In the case of P59K, the abundance fitness is -0.118 ± 0.13.

Take V43R: the abundance fitness is 0.006 ± 0.067.

With V43M, the abundance fitness amounted to 0.079 ± 0.11.

V43W: the abundance fitness was -0.028 ± 0.12.

For the variant V43F, the abundance fitness was -0.125 ± 0.14.

Take V43K: the abundance fitness was -0.148 ± 0.13.

Regarding V43L, the abundance fitness is -0.1 ± 0.12.

On to V43H, for which the abundance fitness is -0.129 ± 0.45.

For V43D, the abundance fitness is -0.017 ± 0.17.

Consider V43G, for which the abundance fitness was -0.026 ± 0.064.

Consider V43T, for which the abundance fitness is -0.113 ± 0.17.

With V43E, the abundance fitness was determined as 0.204 ± 0.13.

As for V43S, the abundance fitness is -0.029 ± 0.081.

Consider V43P, for which the abundance fitness is -0.844 ± 0.2.

For V43N, the abundance fitness was -0.157 ± 0.28.

Consider V43A, for which the abundance fitness was -0.059 ± 0.11.

Take V43Y: the abundance fitness was -0.229 ± 0.18.

On to S41A, for which the abundance fitness is -0.222 ± 0.079.

S41N: the abundance fitness is -0.175 ± 0.23.

Regarding S41D, the abundance fitness was -0.007 ± 0.14.

Consider S41V, for which the abundance fitness was -0.138 ± 0.095.

On to S41H, for which the abundance fitness was -0.006 ± 0.17.

For the variant S41F, the abundance fitness is -0.384 ± 0.14.

Turning to S41R, the abundance fitness amounted to 0.021 ± 0.077.

Consider S41I, for which the abundance fitness is -0.161 ± 0.27.

As to S41P, the abundance fitness is -0.171 ± 0.097.

On to S41K, for which the abundance fitness was 0.045 ± 0.15.

Regarding S41Q, the abundance fitness was determined as 0.022 ± 0.059.

For S41M, the abundance fitness was -0.285 ± 0.11.

As for S41W, the abundance fitness was -0.207 ± 0.1.

For S41E, the abundance fitness was determined as 0.076 ± 0.12.

On to S41L, for which the abundance fitness was -0.363 ± 0.1.

S41Y: the abundance fitness was -0.078 ± 0.098.

In the case of S41T, the abundance fitness was -0.09 ± 0.088.

Take S41G: the abundance fitness was 0.064 ± 0.062.

On to M58D, for which the abundance fitness was 0.021 ± 0.13.

As for M58F, the abundance fitness was -0.073 ± 0.17.

In the case of M58Y, the abundance fitness amounted to 0.174 ± 0.2.

In the case of M58T, the abundance fitness came to 0.125 ± 0.13.

For the variant M58Q, the abundance fitness turned out to be 0.066 ± 0.12.

Regarding M58L, the abundance fitness is 0.015 ± 0.087.

Regarding M58I, the abundance fitness was -0.047 ± 0.13.

For the variant M58P, the abundance fitness was 0.201 ± 0.11.

As for M58H, the abundance fitness came out at 0.008 ± 0.18.

Turning to M58A, the abundance fitness was 0.032 ± 0.065.

Regarding M58E, the abundance fitness came to 0.043 ± 0.11.

For M58G, the abundance fitness came out at 0.093 ± 0.052.

In the case of M58W, the abundance fitness was -0.118 ± 0.09.

For M58R, the abundance fitness was -0.02 ± 0.062.

Consider M58N, for which the abundance fitness was 0.037 ± 0.17.

As for M58S, the abundance fitness is 0.055 ± 0.072.

Consider M58C, for which the abundance fitness is 0.074 ± 0.12.

As to M58V, the abundance fitness stood at 0.032 ± 0.063.

With W42Y, the abundance fitness is 0.166 ± 0.13.

Consider W42T, for which the abundance fitness was -0.492 ± 0.15.

As to W42V, the abundance fitness turned out to be 0.114 ± 0.069.

Take W42S: the abundance fitness is -0.865 ± 0.1.

Regarding W42R, the abundance fitness is -0.994 ± 0.092.

In the case of W42G, the abundance fitness is -1.1 ± 0.1.

In the case of W42A, the abundance fitness is -0.554 ± 0.1.

Regarding W42H, the abundance fitness was -0.38 ± 0.15.

In the case of W42F, the abundance fitness was -0.105 ± 0.12.

In the case of W42Q, the abundance fitness is -0.969 ± 0.37.

W42M: the abundance fitness is -0.388 ± 0.099.

Consider W42I, for which the abundance fitness was -0.029 ± 0.2.

For W42L, the abundance fitness was -0.201 ± 0.061.

Turning to W42E, the abundance fitness was -1.07 ± 0.25.

Turning to W42C, the abundance fitness was -0.272 ± 0.082.

Turning to W42P, the abundance fitness was -0.923 ± 0.25.

Consider W42D, for which the abundance fitness is -1 ± 0.47.

W42N: the abundance fitness is -0.774 ± 0.28.

As to S48G, the abundance fitness is -0.049 ± 0.065.

In the case of S48K, the abundance fitness is -0.017 ± 0.15.

Regarding S48Y, the abundance fitness is -0.194 ± 0.27.

Consider S48Q, for which the abundance fitness was -0.191 ± 0.17.

On to S48I, for which the abundance fitness was -0.152 ± 0.15.

For S48F, the abundance fitness is -0.124 ± 0.12.

On to S48T, for which the abundance fitness was -0.134 ± 0.36.

As to S48C, the abundance fitness was found to be 0.009 ± 0.1.

Regarding S48D, the abundance fitness was 0.138 ± 0.12.

Take S48V: the abundance fitness is -0.159 ± 0.078.

S48E: the abundance fitness is 0.208 ± 0.14.

For the variant S48R, the abundance fitness is -0.14 ± 0.073.

On to S48L, for which the abundance fitness was -0.204 ± 0.087.

Take S48M: the abundance fitness was -0.166 ± 0.15.

With N49S, the abundance fitness was -0.09 ± 0.082.

As to N49L, the abundance fitness came to 0.045 ± 0.094.

Turning to N49R, the abundance fitness is -0.107 ± 0.059.

Take N49P: the abundance fitness is -0.182 ± 0.11.

With N49Q, the abundance fitness was determined as 0.015 ± 0.12.

Regarding N49E, the abundance fitness was 0.054 ± 0.11.

Regarding N49Y, the abundance fitness is -0.03 ± 0.19.

In the case of N49I, the abundance fitness is -0.485 ± 0.21.

As to N49M, the abundance fitness is 0.008 ± 0.15.

On to N49F, for which the abundance fitness was -0.135 ± 0.19.

Consider N49A, for which the abundance fitness is -0.109 ± 0.076.

On to N49G, for which the abundance fitness was -0.074 ± 0.059.

For the variant N49K, the abundance fitness is -0.086 ± 0.18.

As for N49T, the abundance fitness is -0.561 ± 0.19.

Consider R53A, for which the abundance fitness was found to be 0.068 ± 0.12.

R53G: the abundance fitness came out at 0.015 ± 0.064.

Consider R53Y, for which the abundance fitness is 0.026 ± 0.24.

Regarding R53W, the abundance fitness is -0.266 ± 0.11.

Turning to R53I, the abundance fitness is -0.158 ± 0.18.

For the variant R53V, the abundance fitness was -0.056 ± 0.088.

Take R53Q: the abundance fitness was 0.085 ± 0.12.

Consider R53M, for which the abundance fitness is -0.045 ± 0.099.

Consider R53S, for which the abundance fitness came to 0.059 ± 0.092.

On to R53C, for which the abundance fitness was -0.137 ± 0.15.

For the variant R53K, the abundance fitness is 0.038 ± 0.19.

As for R53P, the abundance fitness was determined as 0.039 ± 0.091.

As for R53H, the abundance fitness came to 0.062 ± 0.25.

Regarding R53E, the abundance fitness was -0.046 ± 0.1.

Regarding E46V, the abundance fitness is -0.325 ± 0.082.

With E46W, the abundance fitness was -0.783 ± 0.1.

E46S: the abundance fitness is -0.113 ± 0.1.

On to E46R, for which the abundance fitness was -0.273 ± 0.068.

Turning to E46N, the abundance fitness was -0.343 ± 0.26.

With E46G, the abundance fitness is -0.263 ± 0.068.

With E46Y, the abundance fitness is -0.626 ± 0.42.

For E46T, the abundance fitness is -0.047 ± 0.099.

With E46M, the abundance fitness was -0.095 ± 0.15.

In the case of E46Q, the abundance fitness is -0.012 ± 0.11.

For E46H, the abundance fitness was -0.161 ± 0.23.

In the case of E46F, the abundance fitness is -0.197 ± 0.17.

Consider E46C, for which the abundance fitness was -0.201 ± 0.1.

On to E46A, for which the abundance fitness is -0.083 ± 0.086.

As for E46P, the abundance fitness is -0.199 ± 0.096.

Turning to L44A, the abundance fitness came to 0.006 ± 0.12.

As for L44W, the abundance fitness is -0.414 ± 0.1.

Consider L44I, for which the abundance fitness worked out at 0.048 ± 0.2.

As to L44N, the abundance fitness was -0.938 ± 0.4.

On to L44T, for which the abundance fitness was -0.03 ± 0.12.
